± gives the standard deviation of the averaged measurements.

The test system of the data set is Saccharomyces cerevisiae. Put plainly: protein stability index of tFT-peptide fusion (C-terminal peptide) (PSI (0-1 scale)); higher = more stable (slower turnover). The conditions noted are these: temperature: 30 C. The protocol:
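MPS profiling in S. cerevisiae of the yeast C-terminome library: the last 12 aa of each annotated ORF are fused to the C-terminus of a sfGFP-mCherry timer, after a GGGS linker. Cells are FACS-sorted into 8 mCherry/sfGFP bins and deep-sequenced. PSI runs from 0 (unstable) to 1 (stable); wild type and das1Δ backgrounds, two technical replicates each.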

The mark [1] stands for this setting: genetic background: das1 deletion.

As to HYPLNSIPFTVT [YMR326C C-terminal 12 aa], the protein stability index reads like this: under setting [1], 0.706 ± 0.019; (genetic background: wild type) 0.775 ± 0.087.
In the case of IADELDWLKFGI [GLN3 C-terminal 12 aa], the protein stability index is, setting by setting: under setting [1], 0.906 ± 0.028; (genetic background: wild type) 0.882 ± 0.019.
Turning to ICAWLLFFETIH [BST1 C-terminal 12 aa], the protein stability index runs as follows: under setting [1], 0.458 ± 0.018; (genetic background: wild type) 0.521 ± 0.059.
For IDIPVQVKNSFI [YNR068C C-terminal 12 aa], the protein stability index under setting [1] was found to be 0.711 ± 0.017 and the protein stability index (genetic background: wild type) was found to be 0.706 ± 0.051.
The corresponding values for IDLSKKLSFYNY [GMH1 C-terminal 12 aa] are 0.685 ± 0.043 and 0.554 ± 0.0067.
The sequence IDNVIISGKDEY [CCT5 C-terminal 12 aa] registered a protein stability index under setting [1] of 0.7033 ± 0.0056 and a protein stability index (genetic background: wild type) of 0.6529 ± 0.0048.
In the case of IDSLIENLRFQI [DBF4 C-terminal 12 aa], the protein stability index is, setting by setting: under setting [1], 0.7414 ± 0.0037; (genetic background: wild type) 0.678 ± 0.049.
IEELLAGIRMSI [BIT61 C-terminal 12 aa] came in with a protein stability index under setting [1] of 0.719 ± 0.028 and a protein stability index (genetic background: wild type) of 0.706 ± 0.037.
In the case of IEHVKYDNIVSP [UBC12 C-terminal 12 aa], the protein stability index under setting [1] amounted to 0.6974 ± 0.0012 and the protein stability index (genetic background: wild type) is 0.675 ± 0.011.
Turning to “IFMCIILANKHF [YFR052C-A C-terminal 12 aa]”, the protein stability index is 0.342 ± 0.02 under setting [1] and 0.22 ± 0.009 (genetic background: wild type).
In the case of “IFQSAISKAIRG [YBR109W-A C-terminal 12 aa]”, the protein stability index came out at 0.6726 ± 0.0032 under setting [1] and 0.682 ± 0.0053 (genetic background: wild type).
Turning to IFRDYFYKSPSP [PIG1 C-terminal 12 aa], the protein stability index reads like this: under setting [1], 0.739 ± 0.0098; (genetic background: wild type) 0.763 ± 0.034.
The corresponding values for IFSSLVHYCNAG [LST4 C-terminal 12 aa] are 0.729 ± 0.013 and 0.73 ± 0.0085.
Consider IFWLALIYNAIQ [LOH1 C-terminal 12 aa], for which the protein stability index reads like this: under setting [1], 0.479 ± 0.016; (genetic background: wild type) 0.43 ± 0.027.
Consider IGDFFKNLNMAK [NUP159 C-terminal 12 aa], for which the protein stability index is, setting by setting: under setting [1], 0.715 ± 0.026; (genetic background: wild type) 0.743 ± 0.054.
Regarding IGGLLKPSELDD [CRM1 C-terminal 12 aa], the protein stability index is, setting by setting: under setting [1], 0.726 ± 0.032; (genetic background: wild type) 0.696 ± 0.033.
In the case of IGWSVFAEWLCV [CYK3 C-terminal 12 aa], the protein stability index worked out at 0.504 ± 0.02 under setting [1] and 0.5137 ± 0.003 (genetic background: wild type).
As for IHRSVSELSRLH [MBB1 C-terminal 12 aa], the protein stability index was determined as 0.705 ± 0.023 under setting [1] and 0.689 ± 0.025 (genetic background: wild type).
Take IHSTKEEKNCNH [YDR095C C-terminal 12 aa]: the protein stability index reads like this: under setting [1], 0.712 ± 0.017; (genetic background: wild type) 0.683 ± 0.029.
Sequence IIAIVFKILSPN [FAR10 C-terminal 12 aa] returned a protein stability index under setting [1] of 0.32 ± 0.023 and a protein stability index (genetic background: wild type) of 0.347 ± 0.031.
Regarding IIFVVLLCKKSR [ASG7 C-terminal 12 aa], the protein stability index worked out at 0.299 ± 0.019 under setting [1] and 0.309 ± 0.019 (genetic background: wild type).
The corresponding values for IIQQNLKKIGII [GPA1 C-terminal 12 aa] are 0.696 ± 0.02 and 0.195 ± 0.011.
Consider IITGSTSTSSSN [MED8 C-terminal 12 aa], for which the protein stability index amounted to 0.671 ± 0.017 under setting [1] and 0.7067 ± 0.00076 (genetic background: wild type).
Regarding IKELENSRHEQS [MNN1 C-terminal 12 aa], the protein stability index turned out to be 0.713 ± 0.049 under setting [1] and 0.6866 ± 7.9e-05 (genetic background: wild type).
Regarding IKPSAEVHINAL [VMA10 C-terminal 12 aa], the protein stability index is, setting by setting: under setting [1], 0.686 ± 0.011; (genetic background: wild type) 0.743 ± 0.092.
As to IKPSWENEKNIS [ARG2 C-terminal 12 aa], the protein stability index by setting is: under setting [1], 0.69 ± 0.02; (genetic background: wild type) 0.684 ± 0.028.
Take ILGAYLIDCVCC [YGL069C C-terminal 12 aa]: the protein stability index by setting is: under setting [1], 0.576 ± 0.045; (genetic background: wild type) 0.644 ± 0.1.
The corresponding values for ILGNMEKKKNQD [EPS1 C-terminal 12 aa] are 0.733 ± 0.021 and 0.751 ± 0.013.
For the sequence ILWLKLEKRIEN [YLR339C C-terminal 12 aa], the protein stability index is, setting by setting: under setting [1], 0.711 ± 0.025; (genetic background: wild type) 0.703 ± 0.01.
On the same counts, the results for IMLTLLMFTGAV [PLB3 C-terminal 12 aa] are 0.402 ± 0.0044 and 0.396 ± 0.0091.
Regarding INIQQFAALLSK [CMD1 C-terminal 12 aa], the protein stability index was 0.66 ± 0.0085 under setting [1] and 0.68 ± 0.0055 (genetic background: wild type).
As for IPAKKTKISLDY [ELP4 C-terminal 12 aa], the protein stability index stood at 0.6845 ± 0.0032 under setting [1] and 0.677 ± 0.018 (genetic background: wild type).
On to IPELHNLKPTCV [YBR238C C-terminal 12 aa], for which the protein stability index was found to be 0.67 ± 0.012 under setting [1] and 0.687 ± 0.016 (genetic background: wild type).
For IPMTLTTLSTVF [UPA2 C-terminal 12 aa], the protein stability index reads like this: under setting [1], 0.619 ± 0.0083; (genetic background: wild type) 0.628 ± 0.012.
On the same counts, the results for IQKLEEARNPQF [UPS1 C-terminal 12 aa] are 0.704 ± 0.046 and 0.718 ± 0.034.
On the same counts, the results for IRRHAYYNQDDD [SLA2 C-terminal 12 aa] are 0.677 ± 0.02 and 0.664 ± 0.0037.
On to ITERLFNAALDD [YBR232C C-terminal 12 aa], for which the protein stability index is 0.7089 ± 0.0038 under setting [1] and 0.708 ± 0.018 (genetic background: wild type).
On the same counts, the results for “ITGLKNNIQKCS [YER068C-A C-terminal 12 aa]” are 0.688 ± 0.0055 and 0.253 ± 0.014.
As to ITHLKAILPKYL [CCA1 C-terminal 12 aa], the protein stability index came out at 0.695 ± 0.0085 under setting [1] and 0.324 ± 0.0095 (genetic background: wild type).
In the case of ITSLKSDEYLVQ [RET2 C-terminal 12 aa], the protein stability index runs as follows: under setting [1], 0.73 ± 0.046; (genetic background: wild type) 0.724 ± 0.085.
IVHKSNFINNKK [OXA1 C-terminal 12 aa]: the protein stability index under setting [1] stood at 0.7224 ± 0.0042 and the protein stability index (genetic background: wild type) came out at 0.6943 ± 0.0055.
As to IVLPMIKDYLFS [HLJ1 C-terminal 12 aa], the protein stability index was determined as 0.678 ± 0.018 under setting [1] and 0.702 ± 0.0079 (genetic background: wild type).
Regarding IWKEVKRHQDFA [ATG20 C-terminal 12 aa], the protein stability index by setting is: under setting [1], 0.7235 ± 0.0023; (genetic background: wild type) 0.734 ± 0.0089.
Turning to IWKPAGNLVGHS [MSI1 C-terminal 12 aa], the protein stability index came to 0.698 ± 0.013 under setting [1] and 0.7019 ± 0.0026 (genetic background: wild type).
Consider IYDWAGEYPLAV [SHM2 C-terminal 12 aa], for which the protein stability index runs as follows: under setting [1], 0.707 ± 0.026; (genetic background: wild type) 0.737 ± 0.0049.
The corresponding values for IYHKDGNKVLKE [YDR391C C-terminal 12 aa] are 0.706 ± 0.053 and 0.6606 ± 0.0043.
On the same counts, the results for IYKLEYYLLTMQ [YOR199W C-terminal 12 aa] are 0.574 ± 0.011 and 0.526 ± 0.034.
For IYRRRKNKIFFW [RCK1 C-terminal 12 aa], the protein stability index is, setting by setting: under setting [1], 0.705 ± 0.012; (genetic background: wild type) 0.692 ± 0.045.
Consider KAAINQQSTPLN [RPH1 C-terminal 12 aa], for which the protein stability index runs as follows: under setting [1], 0.676 ± 0.016; (genetic background: wild type) 0.728 ± 0.053.
Take KAKFEGKKIKFD [BUD22 C-terminal 12 aa]: the protein stability index came out at 0.678 ± 0.011 under setting [1] and 0.7092 ± 0.0046 (genetic background: wild type).
KALIQRKGGKLE [RPL26A C-terminal 12 aa]: the protein stability index is, setting by setting: under setting [1], 0.6757 ± 0.0023; (genetic background: wild type) 0.688 ± 0.037.
With KDEDEEADEDMK [PRE9 C-terminal 12 aa], the protein stability index reads like this: under setting [1], 0.711 ± 0.033; (genetic background: wild type) 0.694 ± 0.014.
As to KDRCGNVPHQSR [MRN1 C-terminal 12 aa], the protein stability index under setting [1] was 0.706 ± 0.0088 and the protein stability index (genetic background: wild type) was found to be 0.716 ± 0.08.
On the same counts, the results for KEASRRFDAGKI [SOD2 C-terminal 12 aa] are 0.6778 ± 0.0059 and 0.6795 ± 0.0053.
The corresponding values for KEKKDKKKKSKD [NOP56 C-terminal 12 aa] are 0.686 ± 0.025 and 0.661 ± 0.022.
On the same counts, the results for KELEFGLDRKYF [SLT2 C-terminal 12 aa] are 0.6989 ± 0.0057 and 0.68 ± 0.04.
For the sequence KELVKRRIVGEV [AEP3 C-terminal 12 aa], the protein stability index is, setting by setting: under setting [1], 0.6815 ± 0.0042; (genetic background: wild type) 0.72 ± 0.064.
In the case of KGARSRFQKSYR [RPS16A C-terminal 12 aa], the protein stability index was found to be 0.707 ± 0.011 under setting [1] and 0.7188 ± 0.0055 (genetic background: wild type).
As for KGTFLANLTDLI [SWF1 C-terminal 12 aa], the protein stability index is, setting by setting: under setting [1], 0.7347 ± 0.0012; (genetic background: wild type) 0.665 ± 0.014.
With KHGTMQFYWRKT [YOR225W C-terminal 12 aa], the protein stability index runs as follows: under setting [1], 0.692 ± 0.0073; (genetic background: wild type) 0.386 ± 0.003.
Consider KHGVSAVKRYLR [CBP1 C-terminal 12 aa], for which the protein stability index runs as follows: under setting [1], 0.6765 ± 0.0054; (genetic background: wild type) 0.68 ± 0.0089.
The corresponding values for KKDKPEGWDRLP [KTR6 C-terminal 12 aa] are 0.728 ± 0.046 and 0.711 ± 0.0073.
On the same counts, the results for KKHSMKSRFKPY [YNL035C C-terminal 12 aa] are 0.696 ± 0.029 and 0.712 ± 0.0099.
Regarding KKKEDKGGLQRS [VHS3 C-terminal 12 aa], the protein stability index stood at 0.6842 ± 0.0022 under setting [1] and 0.697 ± 0.061 (genetic background: wild type).
Regarding KKKNRSKIKFNY [PTH4 C-terminal 12 aa], the protein stability index reads like this: under setting [1], 0.724 ± 0.021; (genetic background: wild type) 0.589 ± 0.011.
In turn, KKSPGGPRQRIK [MAP1 C-terminal 12 aa] yielded a protein stability index under setting [1] of 0.694 ± 0.033 and a protein stability index (genetic background: wild type) of 0.692 ± 0.046.
On the same counts, the results for “KLEKLKAEKTRR [YDL085C-A C-terminal 12 aa]” are 0.669 ± 0.01 and 0.673 ± 0.031.

Values taken from the supplement of paper PMC10724198.
